From article PMC6874530 (2019)

B1: LXRα LBD (protein)
chain: EQLGMIEKLVAAQQQCNRRSFSDRLRVTPWPMAPDPHSREARQQRFAHFTELAIVSVQEIVDFAKQLPGFLQLSREDQIALLKTSAIEVMLLETSRRYNPGSESITFLKDFSYNREDFAKAGLQVEFINPIFEFSRAMNELQLNDAEFALLIAISIFSADRPNVQDQLQVERLQHTYVEALHAYVSIHHPHDRLMFPRMLMKLVSLRTLSSVHSEQVFALRLQDKKLPPLLSEIWDVHE
B2: LXRβ LBD (protein)
chain: AQELMIQQLVAAQLQCNKRSFSDQPKVTPWPLGADPQSRDARQQRFAHFTELAIISVQEIVDFAKQVPGFLQLGREDQIALLKASTIEIMLLETARRYNHETECITFLKDFTYSKDDFHRAGLQVEFINPIFEFSRAMRRLGLDDAEYALLIAINIFSADRPNVQEPGRVEALQQPYVEALLSYTRIKRPQDQLRFPRMLMKLVSLRTLSSVHSEQVFALRLQDKKLPPLLSEIWDVHE
B3: LXRα LBD (protein)
chain: B1 chain
modifications: lipogenic agonists (average)
B4: LXRα LBD (protein)
chain: B1 chain
modifications: AZ6
B5: LXRβ LBD (protein)
chain: B2 chain
modifications: 24,25EC
B6: LXRβ LBD (protein)
chain: B2 chain
modifications: BMS-852927

Molecular target: NCOR1 peptide (Homo sapiens, UniProt O75376)
Sequence (O75376 whole entry): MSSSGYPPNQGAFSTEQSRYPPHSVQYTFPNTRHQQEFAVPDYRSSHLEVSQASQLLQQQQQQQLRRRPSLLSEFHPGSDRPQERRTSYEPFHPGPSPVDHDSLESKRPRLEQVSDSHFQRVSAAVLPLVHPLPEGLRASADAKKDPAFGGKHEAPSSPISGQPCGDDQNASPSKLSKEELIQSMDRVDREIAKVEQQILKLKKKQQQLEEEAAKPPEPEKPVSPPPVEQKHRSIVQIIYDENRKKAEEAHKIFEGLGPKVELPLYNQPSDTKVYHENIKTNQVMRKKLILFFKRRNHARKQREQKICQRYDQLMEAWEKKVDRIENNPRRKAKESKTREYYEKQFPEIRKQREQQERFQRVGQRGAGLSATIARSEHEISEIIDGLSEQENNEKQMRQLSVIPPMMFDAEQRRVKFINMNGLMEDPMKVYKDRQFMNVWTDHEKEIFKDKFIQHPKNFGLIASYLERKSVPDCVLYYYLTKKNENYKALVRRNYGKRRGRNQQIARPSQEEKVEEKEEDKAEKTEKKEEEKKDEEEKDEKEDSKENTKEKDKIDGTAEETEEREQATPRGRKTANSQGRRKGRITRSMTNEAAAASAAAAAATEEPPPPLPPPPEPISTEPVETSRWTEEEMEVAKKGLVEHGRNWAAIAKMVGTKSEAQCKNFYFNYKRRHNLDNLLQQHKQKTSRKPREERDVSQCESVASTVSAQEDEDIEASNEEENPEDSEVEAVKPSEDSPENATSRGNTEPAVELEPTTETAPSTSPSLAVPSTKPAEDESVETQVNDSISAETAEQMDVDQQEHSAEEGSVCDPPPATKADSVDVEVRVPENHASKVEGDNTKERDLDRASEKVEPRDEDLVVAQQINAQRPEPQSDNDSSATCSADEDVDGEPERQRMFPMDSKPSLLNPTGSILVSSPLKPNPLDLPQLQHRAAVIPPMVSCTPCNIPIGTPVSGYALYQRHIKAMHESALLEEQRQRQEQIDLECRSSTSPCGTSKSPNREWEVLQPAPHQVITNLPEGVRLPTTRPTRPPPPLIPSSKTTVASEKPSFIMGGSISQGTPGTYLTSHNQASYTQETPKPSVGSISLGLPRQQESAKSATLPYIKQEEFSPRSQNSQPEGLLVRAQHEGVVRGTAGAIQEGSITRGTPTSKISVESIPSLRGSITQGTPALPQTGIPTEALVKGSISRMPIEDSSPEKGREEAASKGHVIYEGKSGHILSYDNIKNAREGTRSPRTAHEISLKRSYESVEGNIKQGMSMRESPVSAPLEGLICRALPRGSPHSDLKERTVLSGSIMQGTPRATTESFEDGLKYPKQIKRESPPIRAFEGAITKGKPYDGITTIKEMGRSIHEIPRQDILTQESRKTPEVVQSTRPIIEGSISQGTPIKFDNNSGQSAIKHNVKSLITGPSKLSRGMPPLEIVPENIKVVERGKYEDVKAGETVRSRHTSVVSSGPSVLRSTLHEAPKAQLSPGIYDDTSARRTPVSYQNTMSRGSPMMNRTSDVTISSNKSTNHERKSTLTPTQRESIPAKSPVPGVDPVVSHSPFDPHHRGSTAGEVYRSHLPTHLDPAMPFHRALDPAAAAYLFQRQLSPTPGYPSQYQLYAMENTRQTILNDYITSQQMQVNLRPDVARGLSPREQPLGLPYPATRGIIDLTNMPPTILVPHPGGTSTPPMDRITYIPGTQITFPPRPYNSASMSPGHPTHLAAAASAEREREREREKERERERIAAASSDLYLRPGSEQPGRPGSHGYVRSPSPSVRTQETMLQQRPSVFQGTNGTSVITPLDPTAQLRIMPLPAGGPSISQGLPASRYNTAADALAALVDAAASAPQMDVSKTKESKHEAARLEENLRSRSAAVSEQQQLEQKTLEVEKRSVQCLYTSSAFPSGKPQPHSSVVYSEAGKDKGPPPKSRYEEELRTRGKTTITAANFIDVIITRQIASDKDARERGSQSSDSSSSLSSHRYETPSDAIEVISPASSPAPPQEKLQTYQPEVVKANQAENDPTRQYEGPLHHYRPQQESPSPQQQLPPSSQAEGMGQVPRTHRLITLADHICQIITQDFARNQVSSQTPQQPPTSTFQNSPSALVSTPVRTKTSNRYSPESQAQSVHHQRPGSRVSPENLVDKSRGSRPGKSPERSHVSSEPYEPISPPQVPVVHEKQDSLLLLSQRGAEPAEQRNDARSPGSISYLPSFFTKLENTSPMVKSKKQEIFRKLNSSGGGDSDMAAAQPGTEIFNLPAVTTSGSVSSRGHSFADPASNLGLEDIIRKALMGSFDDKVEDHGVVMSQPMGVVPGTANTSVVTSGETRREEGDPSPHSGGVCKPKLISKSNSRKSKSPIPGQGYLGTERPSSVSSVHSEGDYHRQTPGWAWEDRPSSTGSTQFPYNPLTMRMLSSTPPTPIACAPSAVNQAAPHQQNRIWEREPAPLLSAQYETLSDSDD
Assay: SPR

Kd [nM] | Binder
800 | B1
500 | B2

Molecular target: SRC1 peptide (Homo sapiens, UniProt Q15788)
Sequence (Q15788 2-1441): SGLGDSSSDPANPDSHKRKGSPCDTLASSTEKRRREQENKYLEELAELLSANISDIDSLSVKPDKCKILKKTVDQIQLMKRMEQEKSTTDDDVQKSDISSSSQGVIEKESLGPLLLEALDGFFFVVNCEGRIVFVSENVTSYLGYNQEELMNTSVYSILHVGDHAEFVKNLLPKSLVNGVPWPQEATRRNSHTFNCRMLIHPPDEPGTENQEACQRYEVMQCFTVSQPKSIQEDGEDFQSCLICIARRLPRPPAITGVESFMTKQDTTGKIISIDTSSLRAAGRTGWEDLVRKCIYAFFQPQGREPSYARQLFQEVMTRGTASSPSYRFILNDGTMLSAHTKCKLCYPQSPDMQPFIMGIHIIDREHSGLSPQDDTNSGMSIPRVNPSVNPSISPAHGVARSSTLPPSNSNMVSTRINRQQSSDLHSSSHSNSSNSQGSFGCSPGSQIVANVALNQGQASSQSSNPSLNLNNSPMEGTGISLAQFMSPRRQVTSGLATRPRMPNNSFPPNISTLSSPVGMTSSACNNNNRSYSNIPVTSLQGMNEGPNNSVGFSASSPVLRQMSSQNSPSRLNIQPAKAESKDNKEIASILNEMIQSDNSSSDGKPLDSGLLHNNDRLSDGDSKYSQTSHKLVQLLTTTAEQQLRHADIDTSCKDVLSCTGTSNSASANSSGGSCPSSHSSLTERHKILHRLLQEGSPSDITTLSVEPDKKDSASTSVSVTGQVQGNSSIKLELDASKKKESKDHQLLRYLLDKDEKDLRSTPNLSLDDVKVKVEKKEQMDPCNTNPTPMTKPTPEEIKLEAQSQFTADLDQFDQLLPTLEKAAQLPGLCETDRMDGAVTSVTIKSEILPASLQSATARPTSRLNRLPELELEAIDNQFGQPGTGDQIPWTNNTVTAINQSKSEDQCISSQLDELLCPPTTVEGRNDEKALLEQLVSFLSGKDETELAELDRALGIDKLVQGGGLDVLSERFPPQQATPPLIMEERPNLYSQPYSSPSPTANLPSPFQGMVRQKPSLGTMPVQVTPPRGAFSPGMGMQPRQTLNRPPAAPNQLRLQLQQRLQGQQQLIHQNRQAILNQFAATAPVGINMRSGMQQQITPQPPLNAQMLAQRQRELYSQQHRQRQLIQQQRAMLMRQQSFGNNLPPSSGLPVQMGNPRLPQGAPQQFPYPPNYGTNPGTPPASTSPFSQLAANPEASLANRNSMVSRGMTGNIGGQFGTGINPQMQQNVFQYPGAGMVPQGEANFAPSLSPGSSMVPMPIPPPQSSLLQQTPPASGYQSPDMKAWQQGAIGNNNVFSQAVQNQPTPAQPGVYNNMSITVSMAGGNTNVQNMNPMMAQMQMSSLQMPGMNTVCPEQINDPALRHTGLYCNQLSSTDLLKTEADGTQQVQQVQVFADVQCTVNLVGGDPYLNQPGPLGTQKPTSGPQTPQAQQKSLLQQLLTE
Assay: SPR

Kd [nM] | Binder
1200 | B3
1500 | B4
2500 | B5
19800 | B6
